Laboratory results as given in patent publication US5162203A, “Methods of measuring isozymes and isozyme classes of alcohol dehydrogenase” (President and Fellows of Harvard College, priority 1989, dated 1992).
Several values for one entry are separate records, joined by “and”; a condition that tells them apart may be missing. Identical values can stand only once.

B1: Class II ADH: human liver Class II alcohol dehydrogenase (protein, UniProt P08319 1-380, looked up)
All-trans-retinol …: MGTKGKVIKCKAAIAWEAGKPLCIEEVEVAPPKAHEVRIQIIATSLCHTDATVIDSKFEGLAFPVIVGHEAAGIVESIGPGVTNVKPGDKVIPLYAPLCRKCKFCLSPLTNLCGKISNLKSPASDQQLMEDKTSRFTCKGKPVYHFFGTSTFSQYTVVSDINLAKIDDDANLERVCLLGCGFSTGYGAAINNAKVTPGSTCAVFGLGGVGLSAVMGCKAAGASRIIGIDINSEKFVKAKALGATDCLNPRDLHKPIQEVIIELTKGGVDFALDCAGGSETMKAALDCTTAGWGSCTFIGVAAGSKGLTIFPEELIIGRTINGTFFGGWKSVDSIPKLVTDYKNKKFNLDALVTHTLPFDKISEAFDLMNQGKSVRTILIF
B2: β1 β1: Class I human ADH isozyme, β1 homodimer (protein, UniProt P00325 2-375, looked up)
All-trans-retinol …: STAGKVIKCKAAVLWEVKKPFSIEDVEVAPPKAYEVRIKMVAVGICHTDDHVVSGNLVTPLPVILGHEAAGIVESVGEGVTTVKPGDKVIPLFTPQCGKCRVCKNPESNYCLKNDLGNPRGTLQDGTRRFTCRGKPIHHFLGTSTFSQYTVVDENAVAKIDAASPLEKVCLIGCGFSTGYGSAVNVAKVTPGSTCAVFGLGGVGLSAVMGCKAAGAARIIAVDINKDKFAKAKELGATECINPQDYKKPIQEVLKEMTDGGVDFSFEVIGRLDTMMASLLCCHEACGTSVIVGVPPASQNLSINPMLLLTGRTWKGAVYGGFKSKEGIPKLVADFMAKKFSLDALITHVLPFEKINEGFDLLHSGKSIRTVLTF
modifications: homodimer
notes: Class I human ADH isozyme, β1 homodimer
B3: γ1γ1: Class I human ADH isozyme, γ1 homodimer (protein, UniProt P00326 2-375, looked up)
Alcohol dehydrogenase 1C: STAGKVIKCKAAVLWELKKPFSIEEVEVAPPKAHEVRIKMVAAGICRSDEHVVSGNLVTPLPVILGHEAAGIVESVGEGVTTVKPGDKVIPLFTPQCGKCRICKNPESNYCLKNDLGNPRGTLQDGTRRFTCSGKPIHHFVGVSTFSQYTVVDENAVAKIDAASPLEKVCLIGCGFSTGYGSAVKVAKVTPGSTCAVFGLGGVGLSVVMGCKAAGAARIIAVDINKDKFAKAKELGATECINPQDYKKPIQEVLKEMTDGGVDFSFEVIGRLDTMMASLLCCHEACGTSVIVGVPPDSQNLSINPMLLLTGRTWKGAIFGGFKSKESVPKLVADFMAKKFSLDALITNILPFEKINEGFDLLRSGKSIRTVLTF
modifications: homodimer
notes: Class I human ADH isozyme, γ1 homodimer

Columns and labels:
[1] = Reconstitution of purified ADH in inactive diluted human serum, substrate IIA; type: biochemical; conditions: Class II, 50-fold diluted serum, listed as II
Procedure: The ADH isozymes employed were electrophoretically homogeneous with symmetrical HPLC elution profiles and had the highest constant specific activity. Their activity was established both by the standard A340 assay using ethanol and using substrates IA and IIA under conditions described herein, but in the absence of serum.
After the residual background reaction was recorded, a purified ADH isozyme prepared as described in Example 1 was then added and the rate measured as described in part 8 of Example 1. All measurements were made in triplicate.

[2] = Specific activity of purified ADH isozymes in ethanol oxidation assay; type: biochemical
Source text: The isozymes used as primary standards were homogeneous based on SDS-polyacrylamide, urea-polyacrylamide and starch gel electrophoresis as described above. […] Using ethanol as substrate in a conventional ADH assay as described in part 8 of this Example, the specific activity of each purified ADH isozyme was established by monitoring NADH production by the change in absorbance at 340 nm on a Cary 219 spectrophotometer calibrated with potassium chromate absorbance standards (Fisher Chem. Co., Medford, MA) The activity of the purified ADH Class I isozymes were also assayed according to methods of the present invention (Examples 1 (part 8), 2 and 4).
A modification of the procedure of Ditlow et al., 1984, Biochemistry 23:6363-68, was used to purify Class II ADH from human livers proceeding from the preparation of Class I isozymes as described in subpart (a) above. The effluent of the CapGapp column obtained during the loading and binding of Class I was concentrated to about 200 ml in an Amicon concentrator with a PM.30 membrane and dialyzed 16 hours against 10 liters of 10 mM potassium phosphate, 0.1 mM DTT, pH 7.4 containing 10 μM octanal. The sample was applied to a column (3×5 cm) of agarose-AMP affinity resin at a flow rate of 0.5 ml/minute followed by washing of the column with 200 ml of the dialysis buffer. The bound enzyme was eluted with 150 ml of the dialysis buffer with a gradient of NADH from 0 to 66 μg/ml.
Standard assays for ethanol oxidation activity (Dalziel, 1957, Acta Chem Scand 11:1706-23) were carried out on a Cary 219 spectrophotometer interfaced with an Apple IIe microcomputer, using software provided by Varian Associates. The reaction mixture contained 2.5 mM NAD^+ in 0.1M glycine-NaOH buffer. pH 10.0, and 33 mM or 0.2M ethanol for Class I and Class II ADH, respectively.

[3] = Effect of storage conditions and time on ADH activity in serum; type: physicochemical, human
Procedure: Fresh serum samples were obtained from the Clinical Chemistry Laboratory at Brigham and Women's Hospital, Boston, Mass. All serum measurements reported herein were performed within 5 hours of phlebotomy unless otherwise indicated On storage there is considerable variation in the ADH activity of serum samples from the same and different patients. FIGS. 5A and 5B show the effect of storage at 4° C. (closed circles) and room temperature (closed squares) in a typical serum sample, using substrate IA (FIG. 5A) and substrate IIA (FIG. 5B) as measured by the four-assay procedure of Example 4.

[4] = molecular target: ADH in human serum (Class II) (Homo sapiens, UniProt P08319); assay: Fluorometric measurement of serum ADH activity with substrate IIA; type: biochemical; conditions: Class II, substrate IIA
Procedure: All reaction mixtures (3 ml total volume) were prepared directly in 1 cm pathlength, 4 ml fluorometric cuvettes by adding 150 μl of the 300 μM substrate solution (e.g substrate IA or IIA) 100 μl of the 1 mM NADH solution (prepared as in part 5 above) and 2.69 ml of assay buffer (0.1M phosphate, pH 7.6). After thermal equilibration (25° C.) for 5 minutes, 60 μl of isozyme sample (either serum or purified ADH isozymes) was added to the cuvette.
The linear increase of fluorescence was then recorded for 1-10 minutes, until 0.03-1 μM of substrate was consumed. Larger substrate consumption was not found to be desirable (described in subpart (c) below). […] The added product fluorescence intensity was then measured Fluorescence measurements were optimized for samples with low activity (<1 nM/minute). […] Rates measured in the presence of the 0.2 mM ADH inhibitors. […]
The rates of aldehyde reduction, determined as initial velocities (V) and expressed in units of nM/minute, were calculated according to: [formula] where the quantity in parentheses is the slope of the linear fluorescence increase calculated from the quantities Ft and FO, the fluorescence at time t and at the beginning of the reaction, respectively. Cst is the concentration of the product used as a standard added to the cuvette after the initial rate had been measured and Fst is the fluorescence intensity of the added product […]

Molecule	Recovery [1]	specific activity ([2]; purified Class II ADH) [U/mg]	Average Activity Retained ([3]; 4 °C, 2 days) [%]	Average Activity Retained ([3]; 23 °C, 1 day) [%]	Average Activity Retained ([3]; 23 °C, 2 days) [%]	stability of activity in serum ([3]; -70° C.)	Average Activity Retained ([3]; -70 °C, 30 days) [%]	half-life of ADH activity in sera ([3]; room temperature)	limit of detection as isozyme concentration [4] [nM]	specific activity ([2]; ethanol oxidation, pH 10) [U/mg]
B1	82.0% and 83.4% and 85.9% and 81.3%	1.5	55	66	51	at least one month	100	a few hours to >3 days	0.17	–
B2	–	–	–	–	–	–	–	–	–	0.42
B3	–	–	–	–	–	–	–	–	–	4.4
